Results as given in article PMC7528018, “Structure of the TFIIIC subcomplex τA provides insights into RNA polymerase III pre-initiation complex formation” (Nature Communications, 2020).

Legend:
[1] = molecular target: holo-TFIIIC Δtail (τ95Δtail) (Saccharomyces cerevisiae, UniProt P33339;P32367;Q12415;P34111;Q06339;Q12308 1-1025;1-592;1-435;1-1160;1-672;1-588); experiment: EMSA; 0.5 uM DNA; tail deletion has only a mild effect; τA EMSA: 100 mM NaCl, 20 mM HEPES pH 7.5, 5 mM DTT, 1 h on ice, 10% glycerol added before loading; TFIIIC EMSA: 1 h on ice, buffer not restated; 3-8% Tris-acetate gel in 2.5 mM Tris base, 19 mM glycine, 1 mM DTT; details: protein: recombinant; tags: N-terminal TEV-cleavable His tag on τ95; C-terminal TEV-cleavable TwinStrep on τ138; copies: 1;1;1;1;1;1; label: 6FAM at 3' end of non-template strand
[2] = molecular target: T1, TFIIIC subcomplex τA (τ131, τ95, τ55) (S. cerevisiae, UniProt P33339 1-1025; P32367 1-649; Q12415 1-435); experiment: co-sedimentation; 10–30% glycerol gradient without crosslinker, equimolar τA and Brf1–TBPΔN, 75 mM NaCl at mixing, 100 mM NaCl, 20 mM HEPES pH 7.5, 5 mM DTT in the gradient, 16 h at 150,000 x g; fractions on SDS–PAGE, silver stain; apparent stoichiometry; details: both partners purified
T1 construct: τ131, subunit of S. cerevisiae TFIIIC subcomplex τA; insect cell codon-optimized gene; τ95, subunit of S. cerevisiae TFIIIC subcomplex τA; τ55, subunit of S. cerevisiae TFIIIC subcomplex τA; No TEV cleavage of the his-tag is described in the purification; also called wt τA; full-length τA; source: Hi5 insect cells, subunits co-expressed by baculovirus, purified (Ni-NTA, heparin, MonoQ, Superose …)

τA Δplug (τ95Δplug) = τA Δplug (τ95Δplug) (Saccharomyces cerevisiae, UniProt P33339;P32367;Q12415 1-1025;1-521;1-435); experiment: EMSA; 1-10 uM protein, 1 uM DNA; much stronger than wt, weaker than Δtail; τA EMSA: 100 mM NaCl, 20 mM HEPES pH 7.5, 5 mM DTT, 1 h on ice, 10% glycerol added before loading; TFIIIC EMSA: 1 h on ice, buffer not restated; 3-8% Tris-acetate gel in 2.5 mM Tris base, 19 mM glycine, 1 mM DTT; details: protein: recombinant; tags: N-terminal TEV-cleavable His tag on τ95; copies: 1;1;1; label: 6FAM at 3' end of non-template strand
τA Δtail (τ95Δtail) = τA Δtail (τ95Δtail) (Saccharomyces cerevisiae, UniProt P33339;P32367;Q12415 1-1025;1-592;1-435); experiment: EMSA; 1-10 uM protein, 1 uM DNA; much stronger than wt and stronger than Δplug; τA EMSA: 100 mM NaCl, 20 mM HEPES pH 7.5, 5 mM DTT, 1 h on ice, 10% glycerol added before loading; TFIIIC EMSA: 1 h on ice, buffer not restated; 3-8% Tris-acetate gel in 2.5 mM Tris base, 19 mM glycine, 1 mM DTT; details: protein: recombinant; tags: N-terminal TEV-cleavable His tag on τ95; copies: 1;1;1; label: 6FAM at 3' end of non-template strand
τA Δtail (τ95Δtail), sequence (P33339 whole entry, stated change not applied, chain 1 of 3): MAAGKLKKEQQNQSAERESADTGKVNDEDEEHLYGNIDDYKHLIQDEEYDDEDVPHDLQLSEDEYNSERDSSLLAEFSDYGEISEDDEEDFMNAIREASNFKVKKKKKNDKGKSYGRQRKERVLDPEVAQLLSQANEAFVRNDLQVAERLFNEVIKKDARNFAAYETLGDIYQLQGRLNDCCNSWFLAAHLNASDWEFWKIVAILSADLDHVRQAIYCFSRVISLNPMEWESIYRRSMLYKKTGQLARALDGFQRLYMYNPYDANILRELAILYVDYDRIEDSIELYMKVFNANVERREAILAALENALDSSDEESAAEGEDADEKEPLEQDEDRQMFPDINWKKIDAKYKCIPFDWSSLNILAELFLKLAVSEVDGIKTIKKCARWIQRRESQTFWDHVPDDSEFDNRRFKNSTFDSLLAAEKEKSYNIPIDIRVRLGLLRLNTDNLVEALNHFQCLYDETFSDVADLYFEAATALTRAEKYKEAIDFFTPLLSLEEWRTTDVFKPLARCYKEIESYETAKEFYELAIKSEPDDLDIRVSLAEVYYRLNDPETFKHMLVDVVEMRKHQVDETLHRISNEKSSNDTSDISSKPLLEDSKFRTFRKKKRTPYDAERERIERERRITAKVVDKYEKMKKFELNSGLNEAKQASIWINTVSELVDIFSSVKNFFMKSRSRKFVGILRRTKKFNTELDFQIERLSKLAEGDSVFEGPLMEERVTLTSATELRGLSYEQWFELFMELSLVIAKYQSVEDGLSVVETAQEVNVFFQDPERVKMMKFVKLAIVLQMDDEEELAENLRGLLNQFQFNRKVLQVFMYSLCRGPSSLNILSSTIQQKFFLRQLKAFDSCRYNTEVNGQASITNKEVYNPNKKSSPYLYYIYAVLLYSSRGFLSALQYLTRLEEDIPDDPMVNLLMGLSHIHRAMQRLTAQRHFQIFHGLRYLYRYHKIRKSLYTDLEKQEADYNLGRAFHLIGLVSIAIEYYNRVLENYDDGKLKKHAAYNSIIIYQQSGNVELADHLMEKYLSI
τA Δtail (τ95Δtail), sequence (P32367 1-592, stated change not applied, chain 2 of 3): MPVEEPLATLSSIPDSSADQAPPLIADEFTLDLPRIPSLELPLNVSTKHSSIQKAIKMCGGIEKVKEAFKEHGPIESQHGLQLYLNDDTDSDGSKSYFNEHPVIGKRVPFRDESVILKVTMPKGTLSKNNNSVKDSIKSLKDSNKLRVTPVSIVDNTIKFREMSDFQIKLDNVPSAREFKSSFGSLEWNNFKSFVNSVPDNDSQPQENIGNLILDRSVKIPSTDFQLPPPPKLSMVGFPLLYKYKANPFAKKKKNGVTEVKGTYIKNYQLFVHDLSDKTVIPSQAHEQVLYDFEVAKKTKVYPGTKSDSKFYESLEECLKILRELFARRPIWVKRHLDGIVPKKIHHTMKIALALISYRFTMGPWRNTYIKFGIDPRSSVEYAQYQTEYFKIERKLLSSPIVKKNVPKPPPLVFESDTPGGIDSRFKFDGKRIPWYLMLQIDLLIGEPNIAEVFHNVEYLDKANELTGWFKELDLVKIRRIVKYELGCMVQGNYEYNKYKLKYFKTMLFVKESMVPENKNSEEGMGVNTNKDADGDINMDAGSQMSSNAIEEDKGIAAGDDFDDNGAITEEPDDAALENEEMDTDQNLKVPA
τA Δtail (τ95Δtail), sequence (Q12415 whole entry, stated change not applied, chain 3 of 3): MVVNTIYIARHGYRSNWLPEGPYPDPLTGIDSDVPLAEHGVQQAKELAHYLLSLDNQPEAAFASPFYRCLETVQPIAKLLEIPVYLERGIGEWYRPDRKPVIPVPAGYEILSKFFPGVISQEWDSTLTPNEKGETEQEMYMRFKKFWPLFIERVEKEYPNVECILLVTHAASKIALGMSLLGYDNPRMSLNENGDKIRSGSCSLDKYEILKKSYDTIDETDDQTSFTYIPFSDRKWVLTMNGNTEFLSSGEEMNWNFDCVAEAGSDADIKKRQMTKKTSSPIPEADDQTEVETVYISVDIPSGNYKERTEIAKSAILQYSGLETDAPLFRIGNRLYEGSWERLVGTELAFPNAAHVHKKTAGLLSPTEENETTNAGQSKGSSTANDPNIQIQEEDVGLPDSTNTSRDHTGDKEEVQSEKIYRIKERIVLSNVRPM

T1 sequence (P33339 whole entry, chain 1 of 3): as the sequence (P33339 whole entry, stated change not applied, chain 1 of 3) above
T1 sequence (P32367 whole entry, chain 2 of 3): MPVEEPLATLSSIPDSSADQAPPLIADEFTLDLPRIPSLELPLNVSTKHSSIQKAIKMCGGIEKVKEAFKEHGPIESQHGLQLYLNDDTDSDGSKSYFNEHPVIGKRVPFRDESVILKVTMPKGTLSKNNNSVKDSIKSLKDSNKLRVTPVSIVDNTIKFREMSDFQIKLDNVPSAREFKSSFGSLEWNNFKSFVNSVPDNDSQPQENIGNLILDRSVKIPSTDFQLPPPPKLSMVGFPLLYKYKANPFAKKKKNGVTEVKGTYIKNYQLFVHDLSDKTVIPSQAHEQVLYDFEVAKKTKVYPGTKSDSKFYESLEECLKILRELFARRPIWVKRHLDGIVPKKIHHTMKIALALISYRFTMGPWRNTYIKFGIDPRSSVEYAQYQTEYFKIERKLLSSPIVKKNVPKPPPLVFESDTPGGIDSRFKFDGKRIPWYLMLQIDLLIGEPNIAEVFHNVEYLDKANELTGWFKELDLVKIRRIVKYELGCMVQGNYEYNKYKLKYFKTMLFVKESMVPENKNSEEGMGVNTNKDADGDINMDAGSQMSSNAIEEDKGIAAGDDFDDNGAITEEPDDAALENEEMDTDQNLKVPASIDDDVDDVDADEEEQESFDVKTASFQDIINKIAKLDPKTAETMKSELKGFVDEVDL
T1 sequence (Q12415 whole entry, chain 3 of 3): as the sequence (Q12415 whole entry, stated change not applied, chain 3 of 3) above
τA Δplug (τ95Δplug), sequence (P33339 whole entry, stated change not applied, chain 1 of 3): as the sequence (P33339 whole entry, stated change not applied, chain 1 of 3) above
τA Δplug (τ95Δplug), sequence (P32367 1-521, stated change not applied, chain 2 of 3): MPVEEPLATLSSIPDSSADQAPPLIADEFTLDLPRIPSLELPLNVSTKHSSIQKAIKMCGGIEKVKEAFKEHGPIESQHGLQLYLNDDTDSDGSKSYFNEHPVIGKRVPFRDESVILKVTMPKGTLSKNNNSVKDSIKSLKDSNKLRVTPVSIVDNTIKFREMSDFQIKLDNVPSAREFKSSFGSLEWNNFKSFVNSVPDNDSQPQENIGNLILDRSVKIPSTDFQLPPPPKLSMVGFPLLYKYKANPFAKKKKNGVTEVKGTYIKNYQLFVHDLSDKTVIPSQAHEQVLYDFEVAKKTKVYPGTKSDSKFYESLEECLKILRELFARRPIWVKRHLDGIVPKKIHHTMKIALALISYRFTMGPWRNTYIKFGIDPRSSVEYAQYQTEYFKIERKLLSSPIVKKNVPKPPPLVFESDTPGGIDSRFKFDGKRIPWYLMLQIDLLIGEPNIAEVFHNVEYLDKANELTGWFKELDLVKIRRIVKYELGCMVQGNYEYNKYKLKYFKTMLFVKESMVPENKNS
τA Δplug (τ95Δplug), sequence (Q12415 whole entry, stated change not applied, chain 3 of 3): as the sequence (Q12415 whole entry, stated change not applied, chain 3 of 3) above

B1: His_Abox_Bbox (dsDNA)
DNA 1: CATCTTAGTATAGTGGTTAGTACACATCGTTGTGGCCGATGAAACCCTGGTTCGATTCTAGG
DNA 2: CCTAGAATCGAACCAGGGTTTCATCGGCCACAACGATGTGTACTAACCACTATACTAAGATG
binding result [1]: binds

B2: Brf1–TBP construct lacking the first 70 amino acids (Zn-ribbon and linker) (other)
chain: SALESREATLNNARRKLRAVSYALHIPEYITDAAFQWYKLALANNFVQGRRSQNVIASCLYVACRKEKTHHMLIDFSSRLQVSVYSIGATFLKMVKKLHITELPLADPSLFIQHFAEKLDLADKKIKVVKDAVKLAQRMSKDWMFEGRRPAGIAGACILLACRMNNLRRTHTEIVAVSHVAEETLQQRLNEFKNTKAAKLSVQKFRENDVEDGEARPPSFVKNRKKERKIKDSLDKEEMFQTSEEALNKNPILTQVLGEQELSSKEVLFYLKQFSERRARVVERIKATNGIDGENIYHEGSENETRKRKLSESGIVPTLQNIVATVTLGCRLDLKTVALHARNAEYNPKRFAAVIMRIREPKTTALIFASGKMVVTGAKSEDDSKLASRKYARIIQKIGFAAKFTDFKIQNIVGSCDVKFPIRLEGLAFSHGTFSSYEPELFPGLIYRMVKPKIVLLIFVSGKIVLTGAKQREEIYQAFEAIYPVLSEFRKMPRNLHLLPTTDTYLSKVSDDPDNLEDVDDEELNAHLLNEEASKLKERIWIGLNADFLLEQESKRLKQEADIATGNTSVKKKRTRRRNNTRSDEPTKTVDAAAAIGLMSDLQDKSGLHAALKAAEESGDFTTADSVKNMLQKASFSKKINYDAIDGLFR
stoichiometry N [2]: 1

B3: His_Abox (dsDNA)
DNA 1: CATCTTAGTATAGTGGTTAGT
DNA 2: ACTAACCACTATACTAAGATG
binding result (τA Δplug (τ95Δplug)): binds | binding result (τA Δtail (τ95Δtail)): binds
